Measurements from PMC6717765, “p32 is a negative regulator of p53 tetramerization and transactivation” (Molecular Oncology, 2019).

B4: His-tagged p32 (wild type, recombinant) (natural protein, UniProt Q07021 74-282, looked up)
chain: LHTDGDKAFVDFLSDEIKEERKIQKHKTLPKMSGGWELELNGTEAKLVRKVAGEKITVTFNINNSIPPTFDGEEEPSQGQKVEEQEPELTSTPNFVVEVIKNDDGKKALVLDCHYPEDEVGQEDEAESDIFSIREVSFQSTGESEWKDTNYTLNTDSLDWALYDHLMDFLADRGVDNTFADELVELSTALEHQEYITFLEDLKSFVKSQ
notes: p32 (gC1qR/C1QBP/HABP1); also called His-p32; mature p32

Experiments:
Details in all cases: both partners purified
[1] = target: T1, FLAG-tagged p53 (recombinant) (UniProt P04637 1-393); experiment: pull-down; GST or GST-p32 fusions immobilised on glutathione-Sepharose beads, FLAG-tagged p53 in solution; overnight at 4 °C; 20 mM Tris/HCl pH 7.3, 0.2 M KCl, 0.2 mM EDTA, 20% glycerol, 0.01% Nonidet P-40; blot with anti-FLAG
T1 construct: p53; also called FLAG-p53; source: E. coli Rosetta 2 (DE3) pLysS, purified (anti-FLAG M2 agarose)
T1 sequence (P04637 whole entry, the tested form may be a part): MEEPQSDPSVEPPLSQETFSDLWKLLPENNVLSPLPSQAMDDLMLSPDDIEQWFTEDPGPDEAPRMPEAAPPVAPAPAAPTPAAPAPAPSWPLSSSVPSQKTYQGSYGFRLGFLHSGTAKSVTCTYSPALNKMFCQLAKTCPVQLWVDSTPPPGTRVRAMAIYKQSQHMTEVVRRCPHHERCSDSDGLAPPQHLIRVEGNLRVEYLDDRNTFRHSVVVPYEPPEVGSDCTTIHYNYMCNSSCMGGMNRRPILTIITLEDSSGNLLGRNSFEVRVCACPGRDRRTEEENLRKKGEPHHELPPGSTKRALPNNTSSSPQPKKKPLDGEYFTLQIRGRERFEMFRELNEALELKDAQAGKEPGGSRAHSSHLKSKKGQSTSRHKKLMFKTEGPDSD

[2] = target: B4; experiment: pull-down; GST or GST-p53 fusions immobilised on glutathione-Sepharose beads, His-tagged p32 in solution; overnight at 4 °C; 20 mM Tris/HCl pH 7.3, 0.2 M KCl, 0.2 mM EDTA, 20% glycerol, 0.01% Nonidet P-40; blot with anti-His
[3] = target: T1, FLAG-tagged p53 (recombinant); experiment: cross-linking; purified FLAG-p53 with or without p32 (molar ratio 1:1, 1:2, 1:4) overnight at 4 °C; 10 mM Tris/HCl pH 7.5, 50 mM NaCl, 0.1 mM EDTA, 1 mM DTT, 5% glycerol; 0.01% glutaraldehyde 10 min at 22 °C; SDS/PAGE and anti-FLAG blot for monomers, dimers, tetramers
GST-p53 = target: T2, GST-p53 (UniProt P04637 1-393); experiment: pull-down; GST or GST-p53 fusions immobilised on glutathione-Sepharose beads, His-tagged p32 in solution; overnight at 4 °C; 20 mM Tris/HCl pH 7.3, 0.2 M KCl, 0.2 mM EDTA, 20% glycerol, 0.01% Nonidet P-40; blot with anti-His
T2 construct: p53; also called GST-fused p53; source: bacterially produced, purified on glutathione-Sepharose 4B beads
T2 sequence (P04637 whole entry, the tested form may be a part): as above

B1: GST-p32 (233-250) (domain or fragment, UniProt Q07021 233-250, looked up)
chain: WALYDHLMDFLADRGVDN
notes: source: expressed and purified on glutathione-Sepharose 4B beads
binding result [1]: binds

B2: GST-p53 tetramerization domain (residues 328-368) (domain or fragment, UniProt P04637 328-368, looked up)
chain: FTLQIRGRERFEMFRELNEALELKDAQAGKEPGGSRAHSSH
notes: source: bacterially produced, purified on glutathione-Sepharose 4B beads
binding result [2]: binds

B3: GST-p32 (233-250) D249A (domain or fragment, UniProt Q07021 233-250, looked up)
chain: WALYDHLMDFLADRGVAN
notes: also called GST-p32 D249A; source: expressed and purified on glutathione-Sepharose 4B beads
binding result [1]: binds

B4
binding result [3]: binds
binding result (GST-p53): binds

B5: GST-p32 C-terminal domain (residues 233-282) (domain or fragment, UniProt Q07021 233-282, looked up)
chain: WALYDHLMDFLADRGVDNTFADELVELSTALEHQEYITFLEDLKSFVKSQ
notes: as for B1
binding result [1]: binds
